According to doi:10.1101/2021.02.04.429857 (bioRxiv, 2021):

Target: the molecule itself
Assay: cryo-EM structure

B1: Streptomyces coelicolor bacterioferritin (natural protein, UniProt Q9S2N0 1-167, looked up)
chain: MQGDPEVIEFLNEQLTAELTAINQYFLHAKLQDHKGWTKLAKYTRAESFDEMRHAEVLTDRILLLDGLPNYQRLFHVRVGQSVTEMFQADREVELEAIDRLRRGIEVMRAKHDITSANVFEAILADEEHHIDYLETQLDLIEKLGESLYLSTVIEQTQPDPSGPGSL
Question: How did the “stoichiometry N” value turn out when B1 was run?
Answer: Its value is 24.
